# According to article PMC1802081:
# Changes are numbered by the printed parent chain. In names and notes the source's numbering stands.
# B1: ActR-IIBECD wildtype (activin type IIB receptor ectodomain) (receptor)
# chain: SGRGEAETRECIYYNANWELERTNQSGLERCEGEQDKRLHCYASWRNSSGTIELVKKGCWLDDFNCYDRQECVATEENPQVYFCCCEGNFCNERFTHLPEPGGPEVTYEPPPTAPTLLT
# B2: BMPR-II receptor ectodomain (receptor)
# chain: SQNQERLCAFKDPYQQDLGIGESRISHENGTILCSKGSTCYGLWEKSKGDINLVKQGCWSHIGDPQECHYEECVVTTTPPSIQNGTYRFCCCSTDLCNVNFTENFPPPDTTPLSPPHSFNRDET
# B3: ActR-IIBECD L61A (receptor)
# chain: B1 chain with L61A
# B4: ActR-IIBECD L61P (receptor)
# chain: B1 chain with L61P
# What was measured:
# Test in all cases: SPR; BIACORE 2000; biotinylated ligand on a streptavidin-modified CM5 chip (about 200 RU); receptor ectodomain as analyte at 1, 2, 3, 5, 10, 20 and 50 uM; HBS500 (10 mM HEPES pH 7.4, 500 mM NaCl, 3.4 mM EDTA, 0.005% P20); apparent KD from the dose dependence of equilibrium binding
# BMP-2 S85R = target: BMP-2 S85R
# BMP-2 A86P = target: BMP-2 A86P
# BMP-2 L100K = target: BMP-2 L100K
# [1] = target: BMP-2 variant L100K/N102D
# BMP-2 N102D = target: BMP-2 N102D
# BMP-2 S85R/A86P = target: BMP-2 S85R/A86P
Binder,rel. KD (against wildtype BMP-2 from E. coli with the same receptor) (BMP-2 S85R),rel. KD (against wildtype BMP-2 from E. coli with the same receptor) (BMP-2 A86P),rel. KD (against wildtype BMP-2 from E. coli with the same receptor) (BMP-2 L100K),Kd [1],rel. KD (against wildtype BMP-2 from E. coli with the same receptor) (BMP-2 N102D),rel. KD (against wildtype BMP-2 from E. coli with the same receptor) (BMP-2 S85R/A86P),rel. KD (against wildtype BMP-2 from E. coli with the same receptor) [1]
B1,1.3 fold,2.6 fold,0.15 fold,0.14 µM,7.8 fold,1.4 fold,
B2,0.12 fold,0.5 fold,1.3 fold,,0.96 fold,0.19 fold,0.92 fold
B3,,,,14 µM,,,
B4,,,,160 µM,,,
